± gives the standard error. This sample holds only a part of the variants without activity.
B1: glmS ribozyme (parent)
chain: AUAAAAGCGCCAGAACUACAGAAAUGUAGUUGACGAGGAGGAGGUUUAUCGAAUUUUCGGCGGAUGCCUCCAAA

Experiments:
Conditions in all cases: with glucosamine-6-phosphate
glucosamine-6-phosphate [1] = variants of: B1; assay: self-cleavage kobs at 40 uM GlcN6P; higher = faster cleavage; RNA array
Outline: (§1)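 Using a hybridised Cy3 probe at 37 °C, barcoded ribozyme variants transcribed in situ by E. coli RNA polymerase on sequenced MiSeq chips were monitored across tiles imaged over ~14 h. The flow contained glucosamine-6-phosphate from 40 μM to 10 mM in HEPES/KCl/Mg(OAc)2 buffer. Signals were normalised to baseline and to non-cleaving reference variants before per-tile medians were fit to one- or two-exponential decays to yield kobs. Weighted Michaelis–Menten fits across concentrations gave kcat and KM.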

glucosamine-6-phosphate [2] = variants of: B1; assay: self-cleavage kobs at 2500 uM GlcN6P; higher = faster cleavage; RNA array
Outline: as §1

glucosamine-6-phosphate [3] = variants of: B1; assay: self-cleavage kobs at 160 uM GlcN6P; higher = faster cleavage; RNA array
Outline: as §1

glucosamine-6-phosphate [4] = variants of: B1; assay: self-cleavage kobs at 10000 uM GlcN6P; higher = faster cleavage; RNA array
Outline: as §1

glucosamine-6-phosphate [5] = variants of: B1; assay: self-cleavage kobs at 640 uM GlcN6P; higher = faster cleavage; RNA array
Outline: as §1

Variant	self-cleavage kobs at 40 uM GlcN6P (glucosamine-6-phosphate [1]) [s⁻¹]	self-cleavage kobs at 2500 uM GlcN6P (glucosamine-6-phosphate [2]) [s⁻¹]	self-cleavage kobs at 160 uM GlcN6P (glucosamine-6-phosphate [3]) [s⁻¹]	self-cleavage kobs at 10000 uM GlcN6P (glucosamine-6-phosphate [4]) [s⁻¹]	self-cleavage kobs at 640 uM GlcN6P (glucosamine-6-phosphate [5]) [s⁻¹]
AUAAAAGCGCCAGAACUACAGAAAUGUAGUUGACGAGGAGGAGGUUUAUCGAAUUUUCGGUGGAUGCUUACAAA [C61U C68U C70A]	< 1e-05	< 1e-05	–	–	–
AUAAAAGCGCCAGAACUACAGAAAUGUAGUUGACGAGGAGGAGGUUUAUCGAAUUUUCGGCUUAUGCCUCCAAA [G62U G63U]	< 1e-05	< 1e-05	< 1e-05	< 1e-05	–
AUAAAAGCGCCAGAACUACAGAAAUGUAGUUGACGAGGAGGAGGUUUAUCGAAUUUUCGGCGCCUGCCUCCAAA [G63C A64C]	< 1e-05	–	< 1e-05	< 1e-05	–
AUAAAAGCGCCAGAACUACAGAAAUGUAGUUGACGAGGAGGAGGUUUAUCGAAUUUUCGGCGAAGUCCUCCAAA [G63A U65G G66U]	< 1e-05	< 1e-05	–	< 1e-05	–
AUAAAAGCGCCAGAACUACAGAAAUGUAGUUGACGAGGAGGAGGUUUAUCGAAUUUUCGGCGAAUUCCUCCAAA [G63A G66U]	< 1e-05	< 1e-05	–	< 1e-05	< 1e-05
AUAAAAGCGCCAGAACUACAGAAAUGUAGUUGACGAGGAGGAGGUUUAUCGAAUUUUCGGCGUAUGGCUCCAAA [G63U C67G]	< 1e-05	–	< 1e-05	< 1e-05	–
AUAAAAGCGCCAGAACUACAGAAAUGUAGUUGACGAGGAGGAGGUUUAUCGAAUUUUCGGCGUGUGCCUCCAAA [G63U A64G]	< 1e-05	–	< 1e-05	< 1e-05	< 1e-05
AUAAAAGCGCCAGAACUACAGAAAUGUAGUUGACGAGGAGGAGGUUUAUCGAAUUUUCGGCGGCUCCCUCCAAA [A64C G66C]	< 1e-05	–	< 1e-05	–	< 1e-05
AUAAAAGCGCCAGAACUACAGAAAUGUAGUUGACGAGGAGGAGGUUUAUCGAAUUUUCGGCGAUUGCCUCCAAA [G63A A64U]	< 1e-05	< 1e-05	–	< 1e-05	< 1e-05
AUAAAAGCGCCAGAACUACAGAAAUGUAGUUGACGAGGAGGAGGUUUAUCGAAUUUUCGGUGGUUGCCUCCAAA [C61U A64U]	< 1e-05	< 1e-05	< 1e-05	< 1e-05	< 1e-05
AUAAAAGCGCCAGAACUACAGAAAUGUAGUUGACGAGGAGGAGGUUUAUCGAAUUUUCGGGGGUUGCAUCCAAA [C61G A64U C68A]	< 1e-05	–	–	–	–
AUAAAAGCGCCAGAACUACAGAAAUGUAGUUGACGAGGAGGAGGUUUAUCGAAUUUUCGGUGGAUGCGUACAAA [C61U C68G C70A]	< 1e-05	–	–	–	–
AUAAAAGCGCCAGAACUACAGAAAUGUAGUUGACGAGGAGGAGGUUUAUCGAAUUUUCGGCUGAGGCCUCCAAA [G62U U65G]	< 1e-05	< 1e-05	< 1e-05	< 1e-05	< 1e-05
AUAAAAGCGCCAGAACUACAGAAAUGUAGUUGACGAGGAGGAGGUUUAUCGAAUUUUCGGCUGUUGCCUCCAAA [G62U A64U]	< 1e-05	–	–	< 1e-05	< 1e-05
AUAAAAGCGCCAGAACUACAGAAAUGUAGUUGACGAGGAGGAGGUUUAUCGAAUUUUCGGUGGAUGGGUCCAAA [C61U C67G C68G]	4.73e-05 ± 1.6e-05	–	–	–	–
AUAAAAGCGCCAGAACUACAGAAAUGUAGUUGACGAGGAGGAGGUUUAUCGAAUUUUCGGCCGAUGCCUCCAAA [G62C]	< 1e-05	< 1e-05	< 1e-05	< 1e-05	< 1e-05
AUAAAAGCGCCAGAACUACAGAAAUGUAGUUGACGAGGAGGAGGUUUAUCGAAUUUUCGGCGCAUCCCUCCAAA [G63C G66C]	< 1e-05	< 1e-05	< 1e-05	< 1e-05	< 1e-05
AUAAAAGCGCCAGAACUACAGAAAUGUAGUUGACGAGGAGGAGGUUUAUCGAAUUUUCGGUCGAUGCCUCCAAA [C61U G62C]	< 1e-05	< 1e-05	–	< 1e-05	< 1e-05
AUAAAAGCGCCAGAACUACAGAAAUGUAGUUGACGAGGAGGAGGUUUAUCGAAUUUUCGGCGCAUGCCUCUAAA [G63C C71U]	< 1e-05	–	< 1e-05	< 1e-05	–
AUAAAAGCGCCAGAACUACAGAAAUGUAGUUGACGAGGAGGAGGUUUAUCGAAUUUUCGGCGCACGCCUCCAAA [G63C U65C]	< 1e-05	–	–	< 1e-05	–
AUAAAAGCGCCAGAACUACAGAAAUGUAGUUGACGAGGAGGAGGUUUAUCGAAUUUUCGGCGAACGCCUCCAAA [G63A U65C]	< 1e-05	–	–	< 1e-05	< 1e-05
AUAAAAGCGCCAGAACUACAGAAAUGUAGUUGACGAGGAGGAGGUUUAUCGAAUUUUCGGUGGACGCCUCCAAA [C61U U65C]	< 1e-05	< 1e-05	–	< 1e-05	< 1e-05
AUAAAAGCGCCAGAACUACAGAAAUGUAGUUGACGAGGAGGAGGUUUAUCGAAUUUUCGGAGGAUGCCACCAAA [C61A U69A]	< 1e-05	–	–	< 1e-05	–

From the supplement of paper PMC7125110
